Measured values from IntAct's records for PubMed 29039417.

B1: Protein PTHB1 (Homo sapiens), Q3SYG4 (parent)
chain: MSLFKARDWWSTILGDKEEFDQGCLCLANVDNSGNGQDKIIVGSFMGYLRIFSPHPAKTGDGAQAEDLLLEVDLRDPVLQVEVGKFVSGTEMLHLAVLHSRKLCVYSVSGTLGNVEHGNQCQMKLMYEHNLQRTACNMTYGSFGGVKGRDLICIQSMDGMLMVFEQESYAFGRFLPGFLLPGPLAYSSRTDSFLTVSSCQQVESYKYQVLAFATDADKRQETEQQKLGSGKRLVVDWTLNIGEQALDICIVSFNQSASSVFVLGERNFFCLKDNGQIRFMKKLDWSPSCFLPYCSVSEGTINTLIGNHNNMLHIYQDVTLKWATQLPHIPVAVRVGCLHDLKGVIVTLSDDGHLQCSYLGTDPSLFQAPNVQSRELNYDELDVEMKELQKIIKDVNKSQGVWPMTEREDDLNVSVVVSPNFDSVSQATDVEVGTDLVPSVTVKVTLQNRVILQKAKLSVYVQPPLELTCDQFTFEFMTPDLTRTVSFSVYLKRSYTPSELEGNAVVSYSRPTDRNPDGIPRVIQCKFRLPLKLICLPGQPSKTASHKITIDTNKSPVSLLSLFPGFASQSDDDQVNVMGFHFLGGARITVLASKTSQRYRIQSEQFEDLWLITNELILRLQEYFEKQGVKDFACSFSGSIPLQEYFELIDHHFELRINGEKLEELLSERAVQFRAIQRRLLARFKDKTPAPLQHLDTLLDGTYKQVIALADAVEENQGNLFQSFTRLKSATHLVILLIALWQKLSADQVAILEAAFLPLQEDTQELGWEETVDAAISHLLKTCLSKSSKEQALNLNSQLNIPKDTSQLKKHITLLCDRLSKGGRLCLSTDAAAPQTMVMPGGCTTIPESDLEERSVEQDSTELFTNHRHLTAETPRPEVSPLQGVSE
partner: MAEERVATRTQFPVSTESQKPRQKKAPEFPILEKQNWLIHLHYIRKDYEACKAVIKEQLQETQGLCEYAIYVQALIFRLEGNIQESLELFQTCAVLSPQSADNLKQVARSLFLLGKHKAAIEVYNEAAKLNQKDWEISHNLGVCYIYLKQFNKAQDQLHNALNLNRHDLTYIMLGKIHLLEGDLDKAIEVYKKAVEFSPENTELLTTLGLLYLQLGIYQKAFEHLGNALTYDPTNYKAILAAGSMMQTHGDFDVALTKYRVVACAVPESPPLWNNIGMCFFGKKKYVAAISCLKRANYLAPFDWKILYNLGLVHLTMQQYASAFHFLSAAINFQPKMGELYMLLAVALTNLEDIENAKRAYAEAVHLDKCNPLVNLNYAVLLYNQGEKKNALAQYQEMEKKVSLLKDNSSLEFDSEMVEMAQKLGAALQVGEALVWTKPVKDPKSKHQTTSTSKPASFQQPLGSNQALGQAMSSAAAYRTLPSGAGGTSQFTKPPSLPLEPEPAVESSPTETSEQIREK
B2: BBSome complex member BBS2 (Homo sapiens), Q9BXC9 (parent)
chain: MLLPVFTLKLRHKISPRMVAIGRYDGTHPCLAAATQTGKVFIHNPHTRNQHVSASRVFQSPLESDVSLLSINQAVSCLTAGVLNPELGYDALLVGTQTNLLAYDVYNNSDLFYREVADGANAIVLGTLGDISSPLAIIGGNCALQGFNHEGSDLFWTVTGDNVNSLALCDFDGDGKKELLVGSEDFDIRVFKEDEIVAEMTETEIVTSLCPMYGSRFGYALSNGTVGVYDKTSRYWRIKSKNHAMSIHAFDLNSDGVNELITGWSNGKVDARSDRTGEVIFKDNFSSAIAGVVEGDYRMDGHIQLICCSVDGEIRGYLPGTAEMRGNLMDTSAEQDLIRELSQKKQNLLLELRNYEENAKAELASPLNEADGHRGIIPANTRLHTTLSVSLGNETQTAHTELRISTSNDTIIRAVLIFAEGIFTGESHVVHPSIHNLSSSICIPIVPPKDVPVDLHLKAFVGYRSSTQFHVFESTRQLPRFSMYALTSLDPASEPISYVNFTIAERAQRVVVWLGQNFLLPEDTHIQNAPFQVCFTSLRNGGHLHIKIKLSGEITINTDDIDLAGDIIQSMASFFAIEDLQVEADFPVYFEELRKVLVKVDEYHSVHQKLSADMADHSNLIRSLLVGAEDARLMRDMKTMKSRYMELYDLNRDLLNGYKIRCNNHTELLGNLKAVNQAIQRAGRLRVGKPKNQVITACRDAIRSNNINTLFKIMRVGTASS
partner: B1 chain

Variants of: B1
Conditions: with bbs4_human BBS4, Q96RK4

Effect of a mutation on the interaction, with no effect:
L870A
L870E
L870K
T871A
T871E
T871K
A872E
A872K
E873A
E873K
T874A
T874E
T874K
P875A
P875E
P875K
R876A
R876E
R876K
P877A
P877E
P877K
E878A
E878K
V879A
V879E
V879K
S880A
S880E
S880K
P881A
P881E
P881K
L882A
L882E
L882K
Q883A
Q883E
Q883K
G884A
G884E
G884K
V885A
V885E
V885K
S886A
S886E
S886K
E887A
E887K

Variants of: B2
Conditions: with pthb1_human BBS9, Q3SYG4

Effect of a mutation on the interaction, disrupting interaction strength:
S365R
L455E
W513E
I568E
G688K

Variants of: B2
Conditions: with pthb1_human BBS9, Q3SYG4
Remark: another data set of the same source

Effect of a mutation on the interaction, with no effect:
L455E
W513E

Variants of: B2
Conditions: with pthb1_human BBS9, Q3SYG4
Remark: another data set of the same source

Effect of a mutation on the interaction, with no effect:
G688K
R325A
R325E
R325K
G326A
G326E
G326K
N327A
N327E
N327K
L328A
L328E
L328K
M329A
M329E
M329K
D330A
D330E
D330K
T331A
T331E
T331K
S332A
S332E
S332K
A333E
A333K
E334A
E334K
Q335A
Q335E
Q335K
D336A
D336E
D336K
